Measured values as given in the supplement of paper PMC10567573.
± gives the standard deviation.

Assay: protein stability index of a GFP-peptide fusion (GPS, HEK-293T) (PSI 1-6); higher = more stable
Settings: c terminus: a fixed tail appended
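Also: 24-mer peptide tiles fused after GFP, lentivirally expressed, FACS-sorted into six equal bins by GFP/DsRed ratio, decoded by Illumina sequencing, PSI is the read-weighted mean bin number.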

| Sequence | protein stability index (treatment: DMSO) | protein stability index (treatment: MLN4924 1 uM, 8 h) |
| --- | --- | --- |
| LQRLKEQQFVIAGVLVEDSNNHHL [ZBED1] | 2.83 ± 0.085 | 3.02 ± 0.27 |
| SGMTEVERTYSANCSDFLESKGCF [SPATS1] | 3.62 ± 0.24 | 3.62 ± 0.43 |
| QALMLPPGSFWGLCQVAQEALASA [VENTX] | 2.04 ± 0.25 | 2.18 ± 0.42 |
| EVVPIHGRGNFPTLEITLKDIVQT [TENT5C] | 3.5 ± 0.31 | 3.39 ± 0.27 |
| VSTRLTVLREDQIPRGFPTIDMGP [PTPRD] | 2.33 ± 0.47 | 2.53 ± 0.18 |
| MHVACQHGQENIVRILLRRGVDVS [RIPK4] | 2.29 ± 0.32 | 2.24 ± 0.45 |
| NTLVCNGLQNCVYPWDENHCKEKR [NETO1] | 4.21 ± 0.25 | 4.26 ± 0.3 |
| PLFSNWWIQVTSLRIFVWLLLLYF [PHTF1] | 2.21 ± 0.22 | 2.5 ± 0.49 |
| NWKETLVFPPEVPISEKAKDLILR [STK38L] | 2.81 ± 0.43 | 3.28 ± 0.29 |
| SNLLKAGFIRHTVNKITFSEQCYY [DVL3] | 2.3 ± 0.39 | 2.39 ± 0.3 |
| MNLHVYISEHEHFTDFNATSALFW [CLPTM1] | 2.94 ± 0.5 | 2.79 ± 0.39 |
| TPNSKYVKLNVGGSLHYTTLRTLT [KCTD13] | 2.23 ± 0.15 | 2.02 ± 0.25 |
| LKSQPLPLRSSLPISLQATPATPA [TFE3] | 3.92 ± 0.14 | 4 ± 0.26 |
| KVKKLKNLKTLDSKPGVYTSYKPY [DENND6A] | 2.66 ± 0.28 | 2.81 ± 0.42 |
| FRQFGYQDSPGPREAVSQLRELCR [ZNF24] | 3.37 ± 0.17 | 3.38 ± 0.15 |
| VTSYCRSATLVGFTVGSVLGQILV [SLC19A2] | 3.5 ± 0.39 | 2.84 ± 0.6 |

| Sequence | protein stability index (treatment: DMSO) | protein stability index (treatment: MLN4924 1 uM, 8 h) |
| --- | --- | --- |
| SAPPITPECRQVLKTSRKDVKDKE [CHGB] | 5.26 ± 0.25 | 5.41 ± 0.22 |
| RTEIISRSWFPSAPGSASSSKVSG [YJU2B] | 3.94 ± 0.13 | 3.97 ± 0.15 |
| REAATKHSKASLPTGEGSISHEEQ [CHCHD6] | 5.3 ± 0.24 | 5.34 ± 0.3 |
| RGQEPARADQLCQQELRELRRELE [PRPH] | 4.48 ± 0.36 | 4.53 ± 0.5 |
| AALCLEVTLKTAVDGPDLEMLTGQ [FKBP8] | 2.47 ± 0.38 | 2.49 ± 0.091 |
| LSDDYEQVRSAAVQLIWVVSQLYP [INTS4] | 2.08 ± 0.43 | 2.13 ± 0.45 |
| QEITEQQDIAQEISEAFSQRVGFG [CHMP4C] | 5.02 ± 0.14 | 4.77 ± 0.38 |
| ATIENNRVILEIDNARLAVDDFRL [KRT13] | 2.15 ± 0.16 | 2.31 ± 0.35 |
| SSSEQLQCCQTEIIELRRTVNALE [KRT36] | 3.58 ± 0.12 | 3.34 ± 0.38 |
| KQYAMQRPNDDSLAFLDKIKSVKE [IQUB] | 3.64 ± 0.35 | 3.87 ± 0.3 |
| QPLRPWAGGDVPHKTHQAPASASS [DYRK1B] | 4.54 ± 0.17 | 4.58 ± 0.26 |
| GHEKTAKSKTRSLLKRMESLKLKS [DLC1] | 3.62 ± 0.17 | 3.89 ± 0.5 |
| RGLRYYYDKNIIHKTAGKRYVYRF [ETS1] | 2.32 ± 0.2 | 2.46 ± 0.18 |
| NSAAHLFGYRPYDKNISPRENILV [SCD] | 2.22 ± 0.38 | 2.57 ± 0.26 |
| ESSLGSESEEEEEFYDADEETQMI [SLC22A15] | 5.05 ± 0.24 | 4.88 ± 0.3 |
